Tests used:
[1] = biological target: [(POG)3PCG(POG)4]3; assay: 1H-15N HSQC NMR titration
[2] = biological target: [11PROXYL-(POG)3PCG(POG)4]3; assay: 1H-15N HSQC NMR titration

B1: collagen-binding domain (CBD), s3b (Gly893-Lys1008) peptide derived from Clostridium histolyticum cl (other)
chain: GNEKLKEKENNDSSDKATVIPNFNTTMQGSLLGDDSRDYYSFEVKEEGEVNIELDKKDEFGVTWTLHPESNINDRITYGQVDGNKVSNKVKLRPGKYYLLVYKYSGSGNYELRVNK
notes: range 893-1008
binding result [1]: binds
binding result [2]: binds
